Assay results reported in publication PMC2670979.

How the values were obtained:
GST-Miro1 ΔEF = GST-Miro1 ΔEF (UniProt Q8IXI2); experiment: pull-down; as a5 but at 5 uM [Ca2+]free; band normalised to the level in 0 Ca2+
GST-Miro1 WT = GST-Miro1 WT (UniProt Q8IXI2); experiment: as above
Sequence of GST-Miro1 WT (Q8IXI2 whole entry): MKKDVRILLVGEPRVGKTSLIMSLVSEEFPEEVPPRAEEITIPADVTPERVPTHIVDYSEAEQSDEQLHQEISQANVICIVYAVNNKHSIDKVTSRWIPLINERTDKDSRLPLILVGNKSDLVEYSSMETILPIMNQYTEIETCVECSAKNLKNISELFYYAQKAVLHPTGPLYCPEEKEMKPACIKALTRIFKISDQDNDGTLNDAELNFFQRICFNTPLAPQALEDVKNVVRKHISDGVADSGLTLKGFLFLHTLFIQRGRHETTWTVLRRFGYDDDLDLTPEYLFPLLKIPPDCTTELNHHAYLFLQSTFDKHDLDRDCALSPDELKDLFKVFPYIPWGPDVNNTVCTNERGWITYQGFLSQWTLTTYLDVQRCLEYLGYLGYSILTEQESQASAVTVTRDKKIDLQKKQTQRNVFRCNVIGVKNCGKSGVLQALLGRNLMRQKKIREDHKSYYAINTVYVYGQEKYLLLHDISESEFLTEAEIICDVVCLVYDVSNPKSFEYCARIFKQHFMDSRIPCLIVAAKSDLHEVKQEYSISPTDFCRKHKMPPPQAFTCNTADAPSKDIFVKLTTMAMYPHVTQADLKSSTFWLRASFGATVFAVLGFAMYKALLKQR

Sequence of KIF5 motors (endogenous, detected using a pan-KIF5 antibody) (Q2PQA9 whole entry): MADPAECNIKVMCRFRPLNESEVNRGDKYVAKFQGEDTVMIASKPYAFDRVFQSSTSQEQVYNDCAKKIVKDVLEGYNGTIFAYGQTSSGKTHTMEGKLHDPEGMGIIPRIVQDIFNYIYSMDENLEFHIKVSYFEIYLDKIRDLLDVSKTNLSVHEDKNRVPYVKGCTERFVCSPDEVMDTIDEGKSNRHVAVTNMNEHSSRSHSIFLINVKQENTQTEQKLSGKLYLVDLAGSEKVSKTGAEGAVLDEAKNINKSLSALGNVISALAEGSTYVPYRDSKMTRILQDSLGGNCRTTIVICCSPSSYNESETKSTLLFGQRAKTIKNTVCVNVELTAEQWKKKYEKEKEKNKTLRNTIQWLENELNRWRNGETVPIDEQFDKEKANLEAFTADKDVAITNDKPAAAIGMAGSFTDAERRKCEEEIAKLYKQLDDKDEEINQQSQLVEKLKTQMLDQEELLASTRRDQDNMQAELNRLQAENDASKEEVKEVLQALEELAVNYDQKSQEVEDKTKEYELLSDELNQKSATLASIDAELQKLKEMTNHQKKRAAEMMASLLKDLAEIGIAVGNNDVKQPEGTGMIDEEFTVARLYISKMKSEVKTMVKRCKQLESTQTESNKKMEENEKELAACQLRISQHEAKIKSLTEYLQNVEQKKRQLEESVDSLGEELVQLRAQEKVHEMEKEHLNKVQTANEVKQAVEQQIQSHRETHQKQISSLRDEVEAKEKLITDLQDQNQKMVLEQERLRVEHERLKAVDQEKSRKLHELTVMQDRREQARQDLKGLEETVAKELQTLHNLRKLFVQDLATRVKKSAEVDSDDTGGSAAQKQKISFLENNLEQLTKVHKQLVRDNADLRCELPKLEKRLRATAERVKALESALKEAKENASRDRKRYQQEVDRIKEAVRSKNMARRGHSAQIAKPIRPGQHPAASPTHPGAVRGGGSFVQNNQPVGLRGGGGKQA
Sequence of GST-Miro1 ΔEF (Q8IXI2 whole entry E208K/E328K): as the sequence (Q8IXI2 whole entry) above, with E208K, E328K counted along it

KIF5 motors (endogenous, detected using a pan-KIF5 antibody) (from UniProt Q2PQA9 1-963) (natural protein)
percent of the level in 0 [Ca2+], at 5 uM [Ca2+] (GST-Miro1 ΔEF): 87%
percent of the level in 0 [Ca2+], at 5 uM [Ca2+]free (GST-Miro1 WT): 15%
